{"source": "patent US20160184454A1", "about": "“RAB7L1 INTERACTS WITH LRRK2 TO MODIFY INTRANEURONAL PROTEIN SORTING AND PARKINSON'S DISEASE RISK” (THE TRUSTEES OF COLUMBIA UNIVERSITY IN THE CITY OF NEW YORK, priority 2013, published 2016)", "molecules": {"B1": {"name": "RAB7L1 protein in mouse brain lysate (endogenous) (enzyme, UniProt Q91YQ1 1-204, looked up)", "chain": "MGSRDHLFKVLVVGDAAVGKTSLVQRYSQDSFSKHYKSTVGVDFALKVLQWSDSEMVRLQLWDIAGQERFTSMTRLYYRDASACVIMFDVTNATTFSNSQRWKQDLDSKLTLPSGEPVPCLLLANKSDLSPWAVSRDQIDRFSKENGFTGWTETSVKENKNINEAMRVLVEKMMNNSREDVMSLSTQGNYINLQAKPSSGWTCC", "notes": "Detected by Western blot (Santa Cruz sc-81924) after LRRK2 immunoprecipitation"}, "B2": {"name": "CA RAB7L1: constitutively active RAB7L1 (Q67L, deficient in GTPase activity); in b298 the same words denote the fly transgene (protein, UniProt O14966 1-203, looked up, variant Q67L)", "Ras-related protein Rab-7L1": "MGSRDHLFKVLVVGDAAVGKTSLVQRYSQDSFSKHYKSTVGVDFALKVLQWSDYEIVRLQLWDIAGLERFTSMTRLYYRDASACVIMFDVTNATTFSNSQRWKQDLDSKLTLPNGEPVPCLLLANKCDLSPWAVSRDQIDRFSKENGFTGWTETSVKENKNINEAMRVLIEKMMRNSTEDIMSLSTQGDYINLQTKSSSWSCC"}}, "key": {"[1]": {"test_system": "primary rat cortical neurons", "experiment": "MPR sorting / colocalization analysis (Golph4, LAMP2, EEA1) in primary neurons", "type": "cell-based", "details": "in the context of LRRK2 G2019S expression", "text": "A cellular role for the LRRK2-RAB7L1 pathway was investigated. Prior studies have broadly implicated both of these gene products in intracellular sorting (Sakaguchi-Nakashima et al., 2007; Spano et al., 2011). Expression of the LRRK2 G2019S clinical mutation in rat primary neurons induced lysosomal swelling, as quantified by immunostaining for the lyosomal marker LAMP2 or using the lysosomotropic dye Lysotracker, consistent with prior work and other studies (Dodson et al., 2012; MacLeod et al., 2006; Stafa et al., 2012) (FIG. 6A). In addition to lysosomal enlargement, there was significant reduction in lysosomal accumulation of the cation-independent mannose 6-phosphate receptor (MPR) in terms of the fraction of LAMP2-positive structures stained with MPR. As MPR is required also for the recruitment of lysosomal hydrolases, its deficiency is predicted to lead to functional lysosomal deficits.\nMPR is typically recycled between the endolysosome compartment and the Golgi apparatus by the retromer complex (Arighi et al., 2004; Bonifacino and Hurley, 2008; Seaman, 2009; St. George-Hyslop et al., 2009). […]\nPrimary rat cortical neurons were cultured on glass coverslips, transfected, and fixed as previously described in this methods section. […] Images were analysed using NIH ImageJ software version 1.45."}, "[2]": {"biological_target": "T1, human wild-type LRRK2 (BAC transgene, mouse brain) (human, UniProt Q5S007 1-2527)", "T1 construct": "Untagged human LRRK2 expressed from a BAC construct in transgenic mice; It was immunoprecipitated from whole brain lysate with an anti-LRRK2 antibody; The lysate also holds endogenous mouse LRRK2; also called LRRK2 wild type transgenic (WT); LRRK2-WT", "T1 sequence (Q5S007 whole entry R50H)": "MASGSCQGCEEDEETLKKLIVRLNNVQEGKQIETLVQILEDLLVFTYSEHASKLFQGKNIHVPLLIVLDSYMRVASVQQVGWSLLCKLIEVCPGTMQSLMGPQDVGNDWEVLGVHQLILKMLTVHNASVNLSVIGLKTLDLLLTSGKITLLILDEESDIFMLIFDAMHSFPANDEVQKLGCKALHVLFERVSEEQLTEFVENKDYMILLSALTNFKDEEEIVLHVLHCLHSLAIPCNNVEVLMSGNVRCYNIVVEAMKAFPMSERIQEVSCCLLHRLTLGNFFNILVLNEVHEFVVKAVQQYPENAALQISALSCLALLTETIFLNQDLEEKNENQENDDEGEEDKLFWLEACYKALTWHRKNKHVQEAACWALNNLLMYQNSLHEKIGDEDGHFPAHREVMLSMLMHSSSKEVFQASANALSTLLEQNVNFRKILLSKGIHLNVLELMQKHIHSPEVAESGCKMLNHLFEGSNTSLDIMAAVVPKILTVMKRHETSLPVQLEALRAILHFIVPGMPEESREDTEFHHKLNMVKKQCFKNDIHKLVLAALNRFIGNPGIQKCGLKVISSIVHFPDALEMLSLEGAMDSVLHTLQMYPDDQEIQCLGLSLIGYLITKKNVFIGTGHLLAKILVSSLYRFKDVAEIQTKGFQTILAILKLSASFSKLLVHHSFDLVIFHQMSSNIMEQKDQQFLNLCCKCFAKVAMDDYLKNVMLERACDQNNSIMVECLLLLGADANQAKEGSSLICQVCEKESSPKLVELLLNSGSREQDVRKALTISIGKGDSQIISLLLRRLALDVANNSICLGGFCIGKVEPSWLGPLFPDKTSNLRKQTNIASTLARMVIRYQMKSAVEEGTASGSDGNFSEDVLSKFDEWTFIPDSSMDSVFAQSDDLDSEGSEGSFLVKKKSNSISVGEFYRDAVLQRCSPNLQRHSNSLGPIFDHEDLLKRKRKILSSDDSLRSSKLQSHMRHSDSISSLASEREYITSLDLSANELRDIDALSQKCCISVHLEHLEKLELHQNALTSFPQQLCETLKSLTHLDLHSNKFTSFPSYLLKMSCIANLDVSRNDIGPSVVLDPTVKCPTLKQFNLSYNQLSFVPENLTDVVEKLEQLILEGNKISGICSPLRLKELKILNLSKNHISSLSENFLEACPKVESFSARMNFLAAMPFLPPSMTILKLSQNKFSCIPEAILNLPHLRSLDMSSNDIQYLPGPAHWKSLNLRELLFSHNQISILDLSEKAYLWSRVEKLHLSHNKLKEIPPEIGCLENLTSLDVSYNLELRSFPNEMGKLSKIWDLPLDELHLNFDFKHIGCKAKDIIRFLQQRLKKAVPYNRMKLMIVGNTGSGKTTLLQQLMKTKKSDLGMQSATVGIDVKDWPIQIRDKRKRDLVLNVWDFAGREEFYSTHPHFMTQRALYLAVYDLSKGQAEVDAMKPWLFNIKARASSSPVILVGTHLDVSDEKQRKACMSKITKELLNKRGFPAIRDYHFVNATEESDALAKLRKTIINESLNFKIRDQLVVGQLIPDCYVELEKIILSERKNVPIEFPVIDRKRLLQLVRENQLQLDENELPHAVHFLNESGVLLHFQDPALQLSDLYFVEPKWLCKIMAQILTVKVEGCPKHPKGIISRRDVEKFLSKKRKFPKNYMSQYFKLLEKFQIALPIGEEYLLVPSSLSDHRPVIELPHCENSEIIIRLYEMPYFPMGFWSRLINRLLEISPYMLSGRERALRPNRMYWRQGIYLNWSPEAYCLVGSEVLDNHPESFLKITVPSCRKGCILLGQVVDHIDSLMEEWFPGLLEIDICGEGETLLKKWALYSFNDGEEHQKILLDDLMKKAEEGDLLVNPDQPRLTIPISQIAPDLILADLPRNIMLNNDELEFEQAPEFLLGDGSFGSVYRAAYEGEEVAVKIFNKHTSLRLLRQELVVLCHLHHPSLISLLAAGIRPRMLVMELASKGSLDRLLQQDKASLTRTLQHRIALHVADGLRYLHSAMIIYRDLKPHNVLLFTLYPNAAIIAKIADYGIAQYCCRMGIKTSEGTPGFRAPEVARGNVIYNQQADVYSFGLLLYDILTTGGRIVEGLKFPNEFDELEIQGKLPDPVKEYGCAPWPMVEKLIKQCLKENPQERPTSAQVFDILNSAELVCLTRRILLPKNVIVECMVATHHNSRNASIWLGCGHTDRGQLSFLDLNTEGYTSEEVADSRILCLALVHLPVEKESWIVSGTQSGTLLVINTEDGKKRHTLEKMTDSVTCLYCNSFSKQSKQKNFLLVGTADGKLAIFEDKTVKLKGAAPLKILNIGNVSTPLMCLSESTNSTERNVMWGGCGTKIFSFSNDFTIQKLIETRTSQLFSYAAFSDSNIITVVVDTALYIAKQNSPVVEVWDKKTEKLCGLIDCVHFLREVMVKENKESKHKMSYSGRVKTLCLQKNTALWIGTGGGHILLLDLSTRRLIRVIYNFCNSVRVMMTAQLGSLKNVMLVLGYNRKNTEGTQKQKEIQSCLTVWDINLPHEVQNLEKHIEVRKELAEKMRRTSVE", "experiment": "immunoprecipitation of LRRK2 with a rabbit monoclonal antibody from transgenic mouse brain lysates, Western blot for RAB7L1"}, "[3]": {"test_system": "rat primary cortical neurons", "experiment": "Neurite length assay in transfected primary cortical neuron cultures", "type": "cell-based", "details": "for LRRK2 mutation-induced neurite length phenotype: co-transfection with LRRK2 G2019S (0.5 μg/well), test vector 1 μg/well", "text": "As 5 candidate genes are present within the PARK16 locus (SLC45A3, NUCKS, RAB7L1, SLC41A1, and PM20D1), each of the genes were experimentally screened for a functional interaction with LRRK2 (FIG. 2A). A previously-described primary rat neuron in vitro culture model was used, in which transient expression of familial PD-associated LRRK2 G2019S or R1441C mutant alleles leads to a marked reduction in neurite process length (MacLeod et al., 2006). […] RAB7L1 is a small cytosolic GTPase, structurally distinct from RAB7 despite its name (also known as RAB29) (Shimizu et al., 1997). […] But the function of RAB7L1 in CNS neurons remains unknown. Orthologues of RAB7L1 in other organisms, including C. elegans Glo-1 and Drosophila melanogaster Lighloid, have been implicated in trafficking to lysosome-related organelles (Hermann et al., 2005) and in the regulation of neurite process length (Grill et al., 2007), reminiscent of LRRK2 mutant phenotypes (MacLeod et al., 2006). Thus this gene was of particular interest.\nSprague-Dawley rat or mouse PI primary dissociated cortical cultures were prepared and transfected essentially as described (Xia et al., 1996) with the following modifications: cells were plated at high density, approximately 250,000 cells/cm2, in 24-well plates with 500 ul medium/well. Culture medium used for plating cells was Neurobasal-A supplemented with 2% B-27 and 10% FBS. At 1 day after plating, medium was changed to reduced serum (1% FBS+added antimitotic agents: 70 μM uridine and 25 μM 5-fluorodeoxyuridine) and replaced weekly thereafter; for transfections no DMSO was added to the transfection mixture, cells were not subjected to glycerol shock, and a total of 3 μg plasmid DNA was used per well. Cells were fixed in 4% PFA and immunostained with mouse α-RAB7L1 (Santa Cruz, 1:100), and rabbit monoclonal α-LRRK2 (Michal J. Fox Foundation MJFF4, 1:100), then with appropriate fluorescent secondaries (Jackson, 1:1000-2000). Neurite length and neurite puncta (defined as swellings greater than 2 um in diameter) were counted for at least 20 neurons per condition. Mean puncta number per neuron was normalized to total average neurite length versus wild-type LRRK2 transfected cells. Fluorescent microscopy was performed using a Nikon TE 2000-S microscope and a Zeiss LSM510 Meta confocal microscope. Images were analyzed using Image-Pro Plus (Mediacybernetics) software version 5.1.0.20."}, "[4]": {"biological_target": "T2, LRRK2 (Homo sapiens, UniProt Q5S007)", "T2 construct": "Plasmids encoding full-length human LRRK2 (wild-type, G2019S, K1906M) tagged with 3×FLAG at the N-terminus were used; expressed in transfected cells; host or cells: HEK293T", "experiment": "Co-immunoprecipitation of LRRK2 and RAB7L1 from transfected HEK293T cells", "type": "binding", "details": "HEK293T lysates, 3×Flag-LRRK2 and GFP-RAB7L1, 48 hrs", "procedure": "Next more direct evidence of a physical interaction between LRRK2 and RAB7L1 was sought and thus co-immunoprecipitation studies were performed. Epitope-tagged forms of LRRK2 and RAB7L1 (3×Flag-LRRK2 and GFP-RAB7L1) were co-transfected into HEK293T cells, and after 48 hrs, cell lysates were immunoprecipitated with an anti-Flag antibody and then probed for RAB7L1. […] Similarly, immunoprecipitation of RAB7L1 with an antibody to the GFP tag co-precipitated LRRK2 only in the presence of RAB7L1-GFP (FIG. 3B). To probe for an interaction between LRRK2 and RAB7L1 in a more physiological context, RAB7L1 protein was examined in brain lysates from transgenic mice that harbor human wild-type LRRK2 or a familial PD mutant form of LRRK2, R1441C, within a large bacterial artificial chromosome (BAC) construct. Transgenic LRRK2 is broadly expressed throughout the CNS of these mice, although at relatively low levels (FIG. 10A). Brain tissue lysates were immunoprecipitated for LRRK2 protein with a rabbit monoclonal antibody.\nFor cultured cells, HEK293T cells transfected for 48 hours were lysed with lysis buffer containing 0.5% Triton-X. 1 mM EDTA and protease inhibitor cocktail (Sigma). The lysates were rotated at 4° C. for 1 hr followed by centrifugation at 20,000 g for 5 min. […]"}, "[5]": {"test_system": "Drosophila dopamine neurons", "experiment": "Surviving dopaminergic neurons in PPM1 and PPL1 clusters of Drosophila CNS mushroom bodies", "type": "in vivo", "details": "co-expression with LRRK2 G2019S"}}}
{"molecule": "B1", "values": [{"measurement": "lysosomal phenotypes (swollen lysosomes, reduced lysosomal MPR)", "setting": "[1]", "result": "suppressed the lysosomal phenotypes"}, {"measurement": "binding result", "setting": "[2]", "result": "binds"}, {"measurement": "LRRK2 mutation-induced neurite length phenotype", "setting": "[3]", "result": "significantly suppressed the LRRK2 mutation-induced neurite length phenotype"}, {"measurement": "reduced neurite length", "setting": "[3]; in the context of VPS35 knockdown by shRNA", "result": "not rescued"}, {"measurement": "neurite length", "setting": "[3]; in the context of overexpression of wild-type LRRK2", "result": "did not modify neurite length"}, {"measurement": "co-immunoprecipitation with LRRK2", "setting": "[4]", "result": "effectively co-precipitated"}]}
{"molecule": "B2", "values": [{"measurement": "LRRK2 G2019S dopamine neuron loss phenotype", "setting": "[5]", "result": "rescued the LRRK2 G2019S dopamine neuron loss phenotype"}, {"measurement": "LRRK2 mutation-induced neurite length phenotype", "setting": "[3]", "result": "significantly suppressed"}]}
